The values that follow come from patent US20240043508A1 (KOOKMIN UNIVERSITY INDUSTRY ACADEMY COOPERATION FOUNDATION, published 2024).

Numbering of substitutions follows the chain as printed. Like-named read-outs stand apart in the source and are kept apart here.

Test [1] addresses T1, SARS-CoV-2 S protein of the wild-type, on pseudotyped lentiviral particles (SARS-CoV-2). Nature of the test: cell-based or functional assay.
The target of test [2] is T1, SARS-CoV-2 S protein of the wild-type, …. Nature of the test: cell-based or functional assay. The source holds these as a separate data set.
Test [3] addresses SARS-CoV RBD (SARS-CoV, UniProt P59594 306-527). Nature of the test: ELISA, 0.1 ug antigen coated. (In general: In an ELISA, binding on a coated surface is turned into a signal by an enzyme label.)
Test [4] has as its target T2, SARS-CoV-2 RBD (wild-type) (SARS-CoV-2, UniProt P0DTC2 319-541).
Test [5] deals with SARS-CoV-2 S1 domain (SARS-CoV-2, UniProt P0DTC2 14-685). Nature of the test: ELISA: IgG titrated on plate-bound S1, absorbance at 450 nm.
The target of test [6] is T2, SARS-CoV-2 RBD (wild-type). The source holds these as a separate data set.
In test [7] the target is T2, SARS-CoV-2 RBD (wild-type). Nature of the test: SPR, RBD immobilised.
Test [8] concerns the target T2, SARS-CoV-2 RBD (wild-type). Nature of the test: SPR (FIG. 24).
Test [9] addresses SARS-CoV-2 RBD protein (Fc-tagged) (SARS-CoV-2, UniProt P0DTC2 319-541).
Test [10] deals with T2, SARS-CoV-2 RBD (wild-type). Nature of the test: competition ELISA: RBD-His with antibody, binding to coated hACE2-Fc.
Test [11] has as its target T2, SARS-CoV-2 RBD (wild-type). Nature of the test: SPR, RBD immobilised, 1:1 model. Background: Surface plasmon resonance follows binding to a sensor surface in real time, without labels.
For test [12], the target named is T2, SARS-CoV-2 RBD (wild-type). Nature of the test: ELISA, antigen coated, antibody titrated, A450.

B1: RD3 (antibody, V domains shown)
VH: EVQLLESGGGLVQPGGSLRLSCAASGFTFSDYAMSWVRQAPGKGLEWVSWIYSGSGNKYYADSVKGRFTISRDNSKNTLYLQMNSLRAEDTAVYYCARFPIARTSNSQSSYDGMDVWGQGTLVTVSS
VL: QSVLTQPPSASGTPGQRVTISCSGSSSNIGSNAVSWYQQLPGTAPKLLIYADNKRPSGVPDRFSGSKSGTSASLAISGLRSEDEADYYCGAWDSSLNAYVFGGGTKLTVL
notes: also called K102.1
Turning to B1, the “IC50 (nM), pseudovirus neutralization, luciferase in 293T/hACE2 cells” value in [1] came to 1.94 nM. For the same molecule, the “IC50 (nM), pseudotyped virus infection” value in test [2] turned out to be 1.94 nM. The binding result in test [3] is “binds”.

B2: HA-tagged K102.2 (K102.2-HA) (antibody, V domains shown)
VH: EVQLLESGGGLVQPGGSLRLSCAASGFTFSSYDMSWVRQAPGKGLEWVSGISYSGGSTYYADSVKGRFTISRDNSKNTLYLQMNSLRAEDTAVYYCARDVNFVPLVTFDYWGQGTLVTVSS
VL: B1 VL with I20L, S23T, A33S, S35T, A51D, K54Q, A91T, S94Y, N97S
In the case of B2, the EC50 (read off the curve) (in general, the concentration giving half of the maximal effect) in test [4] is around 0.05 µg/mL.

B3: RG6 (antibody, V domains shown)
VH: EVQLLESGGGLVQPGGSLRLSCAASGFTFSDYSMSWVRQAPGKGLEWVSGIYHSDGSKYYADSVKGRFTISRDNSKNTLYLQMNSLRAEDTAVYYCARFDPVFDYWGQGTLVTVSS
VL: B1 VL with S23T, S35N, N53S, K54N, S94A, N97S
B3: the values for the Kd in [5] and in test [6] were 0.22 nM and 0.481 nM, respectively.

B4: RB6 (antibody, V domains shown)
VH: B2 VH
VL: B1 VL with I20L, S23T, A33S, S35T, A51D, K54Q, A91T, S94Y, N97S
notes: also called K102.2
Regarding B4, the Kd (commonly the free concentration of one partner at which half of the binding sites on the other are occupied at equilibrium, for simple one-to-one binding) in test [5] was 3.2 nM; in [7], 2.2 nM; in test [8] it was 2.46 nM; in test [6] it was 0.716 nM; in test [11], 2.2 nM. Further, the kon in [7] and in test [11] was 197000 M⁻¹ s⁻¹ in each case. The “fold affinity against K102.3” value in test [8] was around 5 fold. In addition, the binding result in test [3] was “binds”. Besides, the IC50 – broadly, the concentration that gives 50% inhibition – in test [9] turned out to be 1.95 nM; in [10], 4.94 nM.

B5: RD10 (antibody, V domains shown)
VH: B3 VH with S33A, G50A, H53P, S54G, D55G, K58T, F99N, D100L, P101F, V102G
VL: B1 VL with S23T, S35Y, A51D, N53S, K54N, A91S, S94D, N97S
Turning to B5, the results for the Kd in [5], in test [12] and in [6] were 0.317 nM, around 0.1 nM and 0.55 nM, respectively. In [9], this molecule displayed an IC50 of 1.97 nM.

B6: RB4 (antibody, V domains shown)
VH: B3 VH
VL: B1 VL with A51D, D52N, K54H, A91S, S94D
With B6, the values for the Kd in [5] and in test [6] were 0.169 nM and 0.186 nM, respectively. The molecule also had a half-maximal inhibitory concentration (IC50) in test [9] of 0.841 nM.
